Measured values reported in US20200255528A1 (Five Prime, published 2020).

T1: human B7-H4 on cells (human, UniProt Q7Z7D3 25-282)
T1 construct: Full-length human B7-H4 on transfected HEK293T cells (also aAPCs) or endogenous on SK-BR-3 breast cancer cells; also called SK-BR-3 (endogenous human B7-H4)
T1 sequence: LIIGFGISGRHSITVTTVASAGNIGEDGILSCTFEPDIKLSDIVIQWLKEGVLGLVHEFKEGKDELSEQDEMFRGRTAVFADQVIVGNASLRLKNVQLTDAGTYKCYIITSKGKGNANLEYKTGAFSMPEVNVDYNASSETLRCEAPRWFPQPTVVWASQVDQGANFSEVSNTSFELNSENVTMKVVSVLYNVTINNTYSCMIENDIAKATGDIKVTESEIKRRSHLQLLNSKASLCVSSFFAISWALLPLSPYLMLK

T2: rat B7-H4 on cells (rat, UniProt Q501W4 25-257)
T2 construct: Full-length, on transfected HEK293T cells
T2 sequence: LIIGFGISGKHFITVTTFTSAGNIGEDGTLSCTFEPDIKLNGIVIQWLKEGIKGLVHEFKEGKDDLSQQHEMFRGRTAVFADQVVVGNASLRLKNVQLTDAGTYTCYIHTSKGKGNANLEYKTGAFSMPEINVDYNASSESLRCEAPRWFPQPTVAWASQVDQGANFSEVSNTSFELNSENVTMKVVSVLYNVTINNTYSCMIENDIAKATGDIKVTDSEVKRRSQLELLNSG

T3: mouse B7-H4 on cells (mouse, UniProt Q7TSP5 25-257)
T3 construct: Full-length, on transfected HEK293T cells
T3 sequence: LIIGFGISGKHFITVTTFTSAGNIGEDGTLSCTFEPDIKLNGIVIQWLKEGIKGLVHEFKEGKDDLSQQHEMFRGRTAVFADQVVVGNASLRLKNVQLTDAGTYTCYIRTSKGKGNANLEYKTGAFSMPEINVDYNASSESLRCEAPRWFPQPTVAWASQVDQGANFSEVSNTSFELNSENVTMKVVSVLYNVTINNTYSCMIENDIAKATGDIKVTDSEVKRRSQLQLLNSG

T4: cynomolgus monkey B7-H4 on cells (cynomolgus monkey, UniProt Q7Z7D3 25-282 (human entry))
T4 construct: Full-length, on transfected HEK293T cells
T4 chain: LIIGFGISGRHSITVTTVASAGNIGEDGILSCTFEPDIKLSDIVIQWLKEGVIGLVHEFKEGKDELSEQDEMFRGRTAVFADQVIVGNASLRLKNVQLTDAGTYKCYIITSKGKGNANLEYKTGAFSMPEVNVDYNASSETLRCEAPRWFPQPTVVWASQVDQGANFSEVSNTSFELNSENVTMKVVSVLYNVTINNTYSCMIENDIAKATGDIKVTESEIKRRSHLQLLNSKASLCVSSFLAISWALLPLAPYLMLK


Columns and labels:
human B7-H4 on cells = molecular target: T1, human B7-H4 on cells; experiment: flow cytometry titration on SK-BR-3 cells (endogenous human B7-H4), GEO MFI against antibody concentration
Experimental: (§1) Following incubation, cells were pelleted, washed and incubated with a secondary labeling antibody and samples were acquired on a flow cytometer. Data was analyzed using the FlowJo software and MFI was plotted vs. antibody concentration. The EC50 cell binding potency was calculated using nonlinear regression curve fit (GraphPad Prism).

rat B7-H4 on cells = molecular target: T2, rat B7-H4 on cells; experiment: flow cytometry titration on HEK293T cells transfected with rat B7-H4 (293-ratB7-H4), GEO MFI against antibody concentration
Experimental: as §1

mouse B7-H4 on cells = molecular target: T3, mouse B7-H4 on cells; experiment: flow cytometry titration on HEK293T cells transfected with mouse B7-H4 (293-mouseB7-H4), GEO MFI against antibody concentration
Experimental: as §1

[1] = molecular target: T4, cynomolgus monkey B7-H4 on cells; experiment: flow cytometry titration on HEK293T cells transfected with cynomolgus monkey B7-H4 (293-cynoB7-H4), GEO MFI against antibody concentration
Experimental: as §1

[2] = molecular target: T5, recombinant human B7-H4-huIgG1 (human); experiment: BLI and SPR
T5 construct: the entry begins with the N-terminal leader (MASLG...), no cleavage site is stated; also called B7-H4-hulgGl; B7-H4-extracellular domain (ECD)

| EC50 (read off the curve) (human B7-H4 on cells) | binding result (rat B7-H4 on cells) | EC50 (read off the curve) (mouse B7-H4 on cells) | EC50 (read off the curve) [1] | binding result [2] | Binder |
| --- | --- | --- | --- | --- | --- |
| ~2 nM | binds | ~8 nM | ~5 nM |  | antibody 20506 (antibody, V domains shown, human IgG1/kappa) VH: QLQLQESGPGLVKPSETLSLTCTASGGSISHGGYYWSWIRQHPGKGLEWIGNIYYSGSTYYNPSLKSRVTMSVDTSKNQFSLKLSSVTAADTAVYYCARESSTISADFDLWGRGTLVTVSS VL: DIQMTQSPSSVSASVGDRVTITCRASQGISRWLAWYQQKPGKAPKLLIYAASSLQSGVPSRFSGSGSGTDFTLTISSLQPEDFATYYCQQAHTFPYTFGGGTKVEIKR |
|  |  |  |  | binds | antibody 15483 (antibody, human IgG1, kappa, V domains shown, human IgG1/kappa) VH: QVQLQESGPGLVKPSQTLSLTCTVSGGSISSGGYYWSWIRQHPGKGLEWIGNIYYSGSTYYNPSLKSRVTISVDTSKNQFSLKLSSVTAADTAVYYCARGLSTIDEAFDPWGQGTLVTVSS VL: not shown |
|  |  |  |  | binds | antibody 15462 (antibody, human IgG1, kappa, V domains shown, human IgG1/kappa) VH: QLQLQESGPGLVKPSETLSLTCTVSGGSISSSSYYWGWIRQPPGKGLEWIGNIYYSGSTYYNPSLKSRVTISVDTSKNQFSLKLSSVTAADTAVYYCAREGSYTTVLNVWGQGTMVTVSS VL: EIVLTQSPGTLSLSPGERATLSCRASQSVSSSYLAWYQQKPGQAPRLLIYGASSRATGIPDRFSGSGSGTDFTLTISRLEPEDFAVYYCQQAASYPLTFGGGTKVEIKR |
